The target in this assay is human complement C3b (human) (UniProt P01024).

IC50 of inhibition of normal human serum-induced hemolysis of rabbit erythrocytes, ORF8 39 nM to 5000 nM data for one substance are collected here from paper PMC9851726.

Chain of UniProt P01024 (P01024 23-667, chain 1 of 2): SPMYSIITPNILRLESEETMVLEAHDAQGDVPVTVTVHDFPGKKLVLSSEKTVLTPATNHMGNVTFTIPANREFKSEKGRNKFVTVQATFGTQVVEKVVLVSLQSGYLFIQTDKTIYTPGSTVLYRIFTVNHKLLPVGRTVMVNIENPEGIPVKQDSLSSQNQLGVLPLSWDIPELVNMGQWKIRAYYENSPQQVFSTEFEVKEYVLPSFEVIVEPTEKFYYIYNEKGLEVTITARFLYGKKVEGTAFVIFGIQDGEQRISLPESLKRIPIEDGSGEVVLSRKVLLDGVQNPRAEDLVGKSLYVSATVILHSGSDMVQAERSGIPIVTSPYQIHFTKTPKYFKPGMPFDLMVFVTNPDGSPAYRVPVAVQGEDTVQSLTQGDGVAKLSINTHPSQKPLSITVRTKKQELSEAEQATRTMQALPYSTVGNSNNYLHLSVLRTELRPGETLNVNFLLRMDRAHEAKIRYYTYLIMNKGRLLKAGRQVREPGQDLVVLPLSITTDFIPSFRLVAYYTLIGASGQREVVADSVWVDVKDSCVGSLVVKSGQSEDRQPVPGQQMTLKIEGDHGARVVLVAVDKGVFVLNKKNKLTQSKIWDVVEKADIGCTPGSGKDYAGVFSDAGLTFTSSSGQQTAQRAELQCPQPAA
Chain of UniProt P01024 (P01024 749-1663, chain 2 of 2): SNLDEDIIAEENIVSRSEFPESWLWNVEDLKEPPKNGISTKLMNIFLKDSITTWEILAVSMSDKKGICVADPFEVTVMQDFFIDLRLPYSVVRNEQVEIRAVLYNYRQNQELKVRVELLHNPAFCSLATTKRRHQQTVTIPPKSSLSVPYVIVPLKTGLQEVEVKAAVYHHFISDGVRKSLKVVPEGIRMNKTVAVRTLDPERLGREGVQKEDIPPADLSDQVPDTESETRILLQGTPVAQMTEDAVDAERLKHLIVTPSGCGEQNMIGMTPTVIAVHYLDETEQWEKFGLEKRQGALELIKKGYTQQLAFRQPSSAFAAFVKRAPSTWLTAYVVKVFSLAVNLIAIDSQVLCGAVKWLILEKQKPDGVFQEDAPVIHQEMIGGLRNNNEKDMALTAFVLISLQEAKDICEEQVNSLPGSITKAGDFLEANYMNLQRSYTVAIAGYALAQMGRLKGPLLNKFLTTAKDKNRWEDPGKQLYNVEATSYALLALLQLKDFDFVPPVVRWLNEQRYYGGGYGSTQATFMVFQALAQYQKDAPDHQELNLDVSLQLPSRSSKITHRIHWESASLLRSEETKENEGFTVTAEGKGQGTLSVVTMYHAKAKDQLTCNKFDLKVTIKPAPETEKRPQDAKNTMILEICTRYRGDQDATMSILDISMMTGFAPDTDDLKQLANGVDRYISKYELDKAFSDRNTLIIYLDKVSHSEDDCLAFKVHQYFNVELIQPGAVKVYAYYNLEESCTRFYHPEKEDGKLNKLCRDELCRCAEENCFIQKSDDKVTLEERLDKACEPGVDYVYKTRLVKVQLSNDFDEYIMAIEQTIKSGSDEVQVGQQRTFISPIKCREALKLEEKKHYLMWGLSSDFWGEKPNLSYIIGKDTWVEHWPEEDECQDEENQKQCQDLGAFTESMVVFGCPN

Turning to “recombinant SARS-CoV-2 ORF8 protein, His-tagged (from UniProt P0DTC8 18-121) (natural protein)”, the IC50 of inhibition of normal human serum-induced hemolysis of rabbit erythrocytes, ORF8 39 nM to 5000 nM turned out to be 2300 nM.
